Data from the supplement of paper PMC11246515.
± gives the standard deviation of the averaged measurements.

Test: total protein half-life in vivo (active degradation + dilution); higher = more stable protein
[1] = E. coli NCM3722 delta-clpP delta-lon delta-hslV, growth: N-lim chemostat, doubling time 6 h
[2] = E. coli NCM3722 delta-clpP, growth: N-lim chemostat, doubling time 6 h
[3] = E. coli NCM3722 delta-lon, growth: N-lim chemostat, doubling time 6 h
[4] = E. coli NCM3722 delta-smpB, growth: N-lim chemostat, doubling time 6 h
[5] = wild type E. coli NCM3722, growth: C-lim chemostat, doubling time 3 h
[6] = wild type E. coli NCM3722, growth: C-lim chemostat, doubling time 6 h
[7] = wild type E. coli NCM3722, growth: C-lim chemostat, doubling time 12 h
[8] = wild type E. coli NCM3722, growth: N-lim chemostat, doubling time 6 h
[9] = wild type E. coli NCM3722, growth: N-lim chemostat, doubling time 12 h
[10] = wild type E. coli NCM3722, growth: P-lim chemostat, doubling time 6 h
[11] = wild type E. coli NCM3722, growth: P-lim chemostat, doubling time 12 h
[12] = E. coli NCM3722 delta-hslV, growth: N-lim chemostat, doubling time 6 h

Sequence | total protein half-life in vivo [1] | total protein half-life in vivo [2] | total protein half-life in vivo [3] | total protein half-life in vivo [4] | total protein half-life in vivo [5] | total protein half-life in vivo [6] | total protein half-life in vivo [7] | total protein half-life in vivo [8] | total protein half-life in vivo [9] | total protein half-life in vivo [10] | total protein half-life in vivo [11] | total protein half-life in vivo [12]
MTQGAVKTTGKRSRAVSAKKKAILSAALDTFSQFGFHGTRLEQIAELAGVSKTNLLYYFPSKEALYIAVLRQILDIWLAPLKAFREDFAPLAAIKEYIRLKLEVSRDYPQASRLFCMEMLAGAPLLMDELTGDLKALIDEKSALIAGWVKSGKLAPIDPQHLIFMIWASTQHYADFAPQVEAVTGATLRDEVFFNQTVENVQRIIIEGIRPR [P0ACU2] | 6.17 ± 0.95 h | 5.74 ± 0.36 h | 5.5 ± 0.84 h | 4.92 ± 0.71 h | 2.31 ± 0.54 h | 5.35 h | 12.1 ± 1.9 h | 5.39 ± 0.83 h | 10.8 ± 1.4 h | 4.61 ± 0.38 h | 9.98 ± 0.25 h | –
MTQKIEQSQRQERVAAWNRRAECDLAAFQNSPKQTYQAEKARDRKLCANLEEAIRRSGLQDGMTVSFHHAFRGGDLTVNMVMDVIAKMGFKNLTLASSSLSDCHAPLVEHIRQGVVTRIYTSGLRGPLAEEISRGLLAEPVQIHSHGGRVHLVQSGELNIDVAFLGVPSCDEFGNANGYTGKACCGSLGYAIVDADNAKQVVMLTEELLPYPHNPASIEQDQVDLIVKVDRVGDAAKIGAGATRMTTNPRELLIARSAADVIVNSGYFKEGFSMQTGTGGASLAVTRFLEDKMRSRDIRADFALGGITATMVDLHEKGLIRKLLDVQSFDSHAAQSLARNPNHIEISANQYANWGSKGASVDRLDVVVLSALEIDTQFNVNVLTGSDGVLRGASGGHCDTAIASALSIIVAPLVRGRIPTLVDNVLTCITPGSSVDILVTDHGIAVNPARPELAERLQEAGIKVVSIEWLRERARLLTGEPQPIEFTDRVVAVVRYRDGSVIDVVHQVKE | – | – | – | – | – | – | > 16 h | – | – | – | – | –
MTQPMPGKPAEDAENELDIRGLFRTLWAGKLWIIGMGLAFALIALAYTFFARQEWSSTAITDRPTVNMLGGYYSQQQFLRNLDVRSNMASADQPSVMDEAYKEFVMQLASWDTRREFWLQTDYYKQRMVGNSKADAALLDEMINNIQFIPGDFTRAVNDSVKLIAETAPDANNLLRQYVAFASQRAASHLNDELKGAWAARTIQMKAQVKRQEEVAKAIYDRRMNSIEQALKIAEQHNISRSATDVPAEELPDSEMFLLGRPMLQARLENLQAVGPAFDLDYDQNRAMLNTLNVGPTLDPRFQTYRYLRTPEEPVKRDSPRRAFLMIMWGIVGGLIGAGVALTRRCSK [P0AG00] | 6.85 ± 0.38 h | 6.17 ± 0.56 h | 6.55 ± 0.092 h | 6.22 ± 0.16 h | 3.48 ± 0.46 h | 6.38 ± 0.37 h | – | 6.6 ± 1.2 h | 12.9 ± 1.9 h | 6.31 ± 0.24 h | 13.3 ± 0.56 h | 6.71 ± 1.2 h
MTQPVLDIQQLHLSFPGFNGDVHALNNVSLQINRGEIVGLVGESGSGKSVTAMLIMRLLPTGSYCVHRGQISLLGEDVLNAREKQLRQWRGARVAMIFQEPMTALNPTRRIGLQMMDVIRHHQPISRREARAKAIDLLEEMQIPDAVEVMSRYPFELSGGMRQRVMIALAFSCEPQLIIADEPTTALDVTVQLQVLRLLKHKARASGTAVLFISHDMAVVSQLCDSVYVMYAGSVIESGVTADVIHHPRHPYTIGLLQCAPEHGVPRQLLPAIPGTVPNLTHLPDGCAFRDRCYAAGAQCENVPALTACGDNNQRCACWYPQQEVISV | 6.47 ± 1.1 h | 3.49 ± 0.17 h | 2.24 h | 4.53 ± 0.11 h | 2.28 ± 0.3 h | 3.41 ± 0.54 h | – | 4.02 ± 0.26 h | 7.62 ± 0.58 h | – | – | 4.03 ± 0.098 h
MTQQITLIKDKILSDNYFTLHNITYDLTRKDGEVIRHKREVYDRGNGATILLYNTKKKTVVLIRQFRVATWVNGNESGQLIESCAGLLDNDEPEVCIRKEAIEETGYEVGEVRKLFELYMSPGGVTELIHFFIAEYSDNQRANAGGGVEDEDIEVLELPFSQALEMIKTGEIRDGKTVLLLNYLQTSHLMD | 4.25 h | 3.023 ± 0.017 h | 4.03 ± 0.41 h | 3.07 ± 1 h | 2.824 ± 0.026 h | 4.44 h | 6.27 ± 2.4 h | 3.15 ± 0.25 h | 4.71 h | 2.31 h | 4.47 ± 0.2 h | 2.96 ± 0.066 h
MTQYSSLLRGLAAGSAFLFLFAPTAFAAEQTVEAPSVDARAWILMDYASGKVLAEGNADEKLDPASLTKIMTSYVVGQALKADKIKLTDMVTVGKDAWATGNPALRGSSVMFLKPGDQVSVADLNKGVIIQSGNDACIALADYVAGSQESFIGLMNGYAKKLGLTNTTFQTVHGLDAPGQFSTARDMALLGKALIHDVPEEYAIHKEKEFTFNKIRQPNRNRLLWSSNLNVDGMKTGTTAGAGYNLVASATQGDMRLISVVLGAKTDRIRFNESEKLLTWGFRFFETVTPIKPDATFVTQRVWFGDKSEVNLGAGEAGSVTIPRGQLKNLKASYTLTEPQLTAPLKKGQVVGTIDFQLNGKSIEQRPLIVMENVEEGGFFGRVWDFVMMKFHQWFGSWFS | 6.35 ± 0.48 h | 6.56 ± 0.37 h | 6.18 ± 0.099 h | 6.46 ± 0.26 h | 3.19 ± 0.077 h | 6.19 ± 1.3 h | 12.4 ± 0.45 h | 5.989 ± 0.057 h | 14.9 ± 1.2 h | 5.962 ± 0.051 h | 13.2 ± 0.29 h | 6.22 ± 0.69 h
MTRPIQASLDLQALKQNLSIVRQAATHARVWSVVKANAYGHGIERIWSAIGATDGFALLNLEEAITLRERGWKGPILMLEGFFHAQDLEIYDQHRLTTCVHSNWQLKALQNARLKAPLDIYLKVNSGMNRLGFQPDRVLTVWQQLRAMANVGEMTLMSHFAEAEHPDGISGAMARIEQAAEGLECRRSLSNSAATLWHPEAHFDWVRPGIILYGASPSGQWRDIANTGLRPVMTLSSEIIGVQTLKAGERVGYGGRYTARDEQRIGIVAAGYADGYPRHAPTGTPVLVDGVRTMTVGTVSMDMLAVDLTPCPQAGIGTPVELWGKEIKIDDVAAAAGTVGYELMCALALRVPVVTV | 4.49 ± 0.56 h | 3.6 ± 0.35 h | 3.89 ± 0.29 h | 3.37 ± 0.47 h | 3.16 ± 0.19 h | 6.2 ± 0.25 h | 9.9 ± 0.72 h | 3.6 ± 0.21 h | 5.1 ± 0.33 h | 6.81 ± 1.4 h | 11.9 ± 1.2 h | 3.14 ± 0.1 h
MTRPVTLSEPHFSQHTLNKYASLMAQGNGYLGLRASHEEDYTRQTRGMYLAGLYHRAGKGEINELVNLPDVVGMEIAINGEVFSLSHEAWQRELDFASGELRRNVVWRTSNGSGYTIASRRFVSADQLPLIALEITITPLDADASVLISTGIDATQTNHGRQHLDETQVRVFGQHLMQGSYTTQDGRSDVAISCCCKVSGDVQQCYTAKERRLLQHTSAQLHAGETMTLQKLVWIDWRDDRQAALDEWGSASLRQLEMCAQQSYDQLLAASTENWRQWWQKRRITVNGGEAHDQQALDYALYHLRIMTPAHDERSSIAAKGLTGEGYKGHVFWDTEVFLLPFHLFSDPTVARSLLRYRWHNLPGAQEKARRNGWQGALFPWESARSGEEETPEFAAINIRTGLRQKVASAQAEHHLVADIAWAVIQYWQTTGDESFIAHEGMALLLETAKFWISRAVRVNDRLEIHDVIGPDEYTEHVNNNAYTSYMARYNVQQALNIARQFGCSDDAFIHRAEMFLKELWMPEIQPDGVLPQDDSFMAKPAINLAKYKAAAGKQTILLDYSRAEVNEMQILKQADVVMLNYMLPEQFSAASCLANLQFYEPRTIHDSSLSKAIHGIVAARCGLLTQSYQFWREGTEIDLGADPHSCDDGIHAAATGAIWLGAIQGFAGVSVRDGELHLNPALPEQWQQLSFPLFWQGCELQVTLDAQRIAIRTSAPVSLRLNGQLITVAEESVFCLGDFILPFNGTATKHQEDE | 5.63 h | – | – | – | – | – | – | – | – | – | – | –
MTSGLERLSNLLSKKDSVFVSDLLREAKVNELDETLSTTRLNHLIDKGYERITLQLDLGGESPGYLEKDKHYREADAALLNVIYPTNLSKINTRRKEQV | 4.54 h | – | – | – | – | – | – | – | – | – | – | –
MTSLYLASGSPRRQELLAQLGVTFERIVTGIEEQRQPQESAQQYVVRLAREKARAGVAQTAKDLPVLGADTIVILNGEVLEKPRDAEHAAQMLRKLSGQTHQVMTAVALADSQHILDCLVVTDVTFRTLTDEDIAGYVASDEPLDKAGAYGIQGLGGCFVRKINGSYHAVVGLPLVETYELLSNFNALREKRDKHDG | 4.55 ± 0.58 h | 3.38 ± 0.24 h | 3.02 h | 3.26 ± 0.49 h | 3.2 ± 0.29 h | 5.629 ± 0.034 h | 8.84 ± 0.45 h | 3.15 ± 0.4 h | 4.52 h | 5.41 h | 11.9 ± 1.7 h | 3.17 ± 0.25 h
MTTFHSLTVAKVESETRDAVTITFAVPQPLQEAYRFRPGQHLTLKASFDGEELRRCYSICRSYLPGEISVAVKAIEGGRFSRYAREHIRQGMTLEVMVPQGHFGYQPQAERQGRYLAIAAGSGITPMLAIIATTLQTEPESQFTLIYGNRTSQSMMFRQALADLKDKYPQRLQLLCIFSQETLDSDLLHGRIDGEKLQSLGASLINFRLYDEAFICGPAAMMDDAETALKALGMPDKTIHLERFNTPGTRVKRSVNVQSDGQKVTVRQDGRDREIVLNADDESILDAALRQGADLPYACKGGVCATCKCKVLRGKVAMETNYSLEPDELAAGYVLSCQALPLTSDVVVDFDAKGMA | 4.66 ± 0.67 h | – | – | – | – | – | – | – | – | – | – | –
